Laboratory results published in patent US6946588B2, “Nucleic acid encoding a modified threonine deaminase and methods of use” (Monsanto Technology LLC, priority 1996, dated 2005).

Key:
E. coli DH5α cells = test: PHA production by transformed E. coli DH5α on glucose and propionate (GC analysis); assay type: cell-based; conditions: Set 2 versus Set 1
Procedure: E. coli DH5α cells contining both sets of plasmids expressing all of the required PHA biosynthesis enzymes were grown on 50 ml of LB broth containing all three antibiotics supplemented with 0.75% glucose and 0.15% propionate. The tac promoters were induced with IPTG at a final concentration of 0.5 mM. Nalidixic acid was added to a final concentration of 60 μg/ml. The cells were grown under antibiotic selection (see above) for 24 hours and assayed for the presence of PHA polymer. Cells were centrifuged at 7,000 rpm for 20 min., washed with 25 ml methanol, recentrifuged, washed with 15 ml hexane, and recentrifuged. Cell pellets were dried under N2 for two hours, and the dry cell weights determined. 6.5 ml of chloroform were added to extract the PHA at 100° C. for one hour. The solution was cooled and filtered through a PTFE syringe filter (13 mm diameter, 0.45 μm pore). The PHA was precipitated by the addition of 50 ml of methanol, centrifuged, and washed with hexane. The polymer was dried at 70° C. for two hours, and polymer weight was determined. Methanolysis was performed by dissolving 3-5 mg of PHA sample by the addition of 1 ml of CHCl3, with methyl benzoate as an internal standard for normalization of the data. […] The solution was then analyzed by gas chromatography as described in the section entitled “In vivo Analysis of Cloned E. coli ilvA Genes”.

[1] = Storage stability of purified BktB; assay type: physicochemical; conditions: 10 mM Tris-HCl, pH 7.8, 1 mM DTT, 50% glycerol at −20° C.
Procedure: Purified BktB protein was prepared by growing E. coli EE36 transformed with pMON25754 in LB broth containing ampicillin (100μg/ml) overnight at 37° C. Cells were then harvested by centrifugation, and the pellet was resuspended in 50 mM KPi and 5% glycerol, sonicated, and the sonicate centrifuged to remove cellular debris. The cell extract was desalted using a PD-10 column (Pharmacia), and proteins resolved using a Pharmacia FPLC system and MonoQ anion-exchange column (Pharmacia). Buffer A was 10 mM Tris buffer, pH 7.8, plus 1 mM DTT; buffer B was buffer A plus 1 M KCl. The gradient was 0 to 10% B in 10 min, then to 35% B in 40 min. The flow rate was 1 ml/min, and the resolved proteins were collected at the rate of 1 ml/fraction. The BktB protein was found in fractions 20 to 27, with the maximum activity peak at fraction 23. […] The enzyme was stored in 10 mM Tris-HCl, pH 7.8, 1 mM DTT, 50% glycerol at −20° C.

[2] = test system: A. eutrophus PhbA and BktB β-ketothiolases; test: β-Ketothiolase condensation assay with 1-14C-acetyl-CoA (PhbA, BktB); assay type: biochemical; conditions: 0.30 mM acetyl-CoA
Source text: As noted above, A. eutrophus can produce P(3HB-co-3HV) copolymer when provided with an appropriate C5 precursor. […] One of these β-ketothiolases, designated BktB herein, was encoded on plasmid pBK6. A. eutrophus BktB was obtained from E. coli DH5α transformed with plasmid pMON25754. pMON25754 was produced from the A. eutrophus pBK6 clone (Slater et al., 1988) by deleting a 5.0 kb XhoI fragment (there is an additional XhoI site approximately 5.0 kb 5′ to the XhoI site shown in FIG. 1 of Slater et al.). The pBK6 clone was produced by Slater et al. (1988) from A. eutrophus H16, i.e., ATCC accession number 17699, which is publicly available from the American Type Culture Collection, 12301 Parklawn Drive, Rockville, Md. 20852. BktB was overexpressed from its native promoter on the high copy plasmid pMON25754 by growing the cells overnight at 37° C. to stationary phase in LB broth containing ampicillin (100 μg/ml). A. eutrophus PhbA was obtained from E. coli DH5α transformed with pMON25636 (FIG. 20) by growing the cells at 37° C. in LB broth containing ampicillin (100 μg/ml) to early log phase and then inducing with IPTG. Cells were harvested after two hours of further growth.
The activity of β-ketothiolases can be assayed in both the condensation and thiolysis directions. However, condensation activity for products that are the result of a mixed condensation of acetyl-CoA and a longer chain acyl-CoA are difficult to measure. This is due to the difficulty in distinguishing between acetoacetyl-CoA, the product of condensing two acetyl-CoA molecules, and the mixed condensation reaction product, both of which form simultaneously. To date, condensation assays have been spectrophotometrically-based, but these are valid only when there is a single acyl-CoA substrate present (i.e., acetyl-CoA) since they cannot discriminate between the products formed. The assay described below represents the first reported assay that permits complete quantitation of all condensation products regardless of the nature of starting substrates.
β-ketothiolase assays designed to measure the condensation activity with acetyl-CoA plus either propionyl-CoA or butyryl-CoA were performed using 1-^14C-labelled acetyl-CoA. Since the equilibrium for the reaction lies heavily toward the starting acyl-CoAs rather than the condensed β-ketoacyl-CoA product, the latter was “pulled” to the corresponding β-hydroxyacyl-CoA using NADH and β-ketoacyl-CoA dehydrogenase. In addition, to avoid the strong feedback inhibition of β-ketothiolase by free CoA, each assay solution contained 5,5′-dithio-bis(2-nitrobenzoic acid) (DTNB) to trap chemically the free CoA produced by the reaction.
The condensation assay mixture (0.5 ml final volume) contained 100 mM KPi, pH 7.8, 0.5 mM NADH, 0.30 mM 1-^14C-acetyl-CoA (0.15 μCi), 5 units β-ketoacyl-CoA dehydrogenase, 0.5 mM DTNB, and variable propionyl- or butyryl-CoA as indicated in Table 5. The reaction was initiated by the addition of β-ketothiolase. Following 20 minutes at 30° C., each reaction mixture was quenched by the addition of 25 μl of 10% formic acid. Thirty μl of 25% H2SO4 were added to 200 μl of quenched reaction mix; this mixture was then incubated at 70° C. for 24 hours to hydrolyze all CoA thioesters to their free acids. Sixty μl of 5 M sodium formate were added to the sample to neutralize the pH, followed by analysis of a 130 μl aliquot using C18-reverse-phase HPLC (0.5×25 cm column). Detection and quantitation were carried out by monitoring flow-through with a Radiomatic flow detector. A gradient elution was employed using aqueous 1% acetic acid (solvent A) and acetonitrile (solvent B). […]

B1: BktB: A. eutrophus β-ketothiolase encoded on pBK6, amino acid sequence SEQ ID NO:11 (protein, listed as Alcaligenes eutrophus)
chain: MTREVVVVSGVRTAIGTFGGSLKDVAPAELGALVVREALARAQVSGDDVGHVVFGNVIQTEPRDMYLGRVAAVNGGVTINAPALTVNRLCGSGLQAIVSAAQTILLGDTDVAIGGGAESMSRAPYLAPAARWGARMGDAGLVDMMLGALHDPFHRIHMGVTAENVAKEYDISRAQQDEAALESHRRASAAIKAGYFKDQIVPVVSKGRKGDVTFDTDEHVRHDATIDDMTKLRPVFVKENGTVTAGNASGLNDAAAAVVMMERAEAERRGLKPLARLVSYGHAGVDPKAMGIGPVPATKIALERAGLQVSDLDVIEANEAFAAQACAVTKALGLDPAKVNPNGSGISLGHPIGATGALITVKALHELNRVQGRYALVTMCIGGGQGIAAIFERI
- greater percentage of the C5 monomer than cells expressing the PhbA β-ketothiolase (E. coli DH5α cells): five-to-six-fold
- stability of activity on storage [1]: Activity remained constant for a minimum of two months
- % Turnover C4 Product ([2]; butyryl-CoA 0.6 mM): 1.0%
- % Turnover C6 Product ([2]; butyryl-CoA 0.6 mM): 4.9%
- % Turnover C4 Product ([2]; butyryl-CoA 1.2 mM): 0.6%
- % Turnover C6 Product ([2]; butyryl-CoA 1.2 mM): 7.3%
- % Turnover C4 Product ([2]; butyryl-CoA 2.4 mM): 0.4%
- % Turnover C6 Product ([2]; butyryl-CoA 2.4 mM): 7.9%
- % Turnover C4 Product ([2]; propionyl-CoA 0 mM): 4.2%
- % Turnover C4 Product ([2]; propionyl-CoA 0.6 mM): 1.8%
- % Turnover C5 Product ([2]; propionyl-CoA 0.6 mM): 13.2%
- % Turnover C4 Product ([2]; propionyl-CoA 1.2 mM): 1.0%
- % Turnover C5 Product ([2]; propionyl-CoA 1.2 mM): 15.6%
- % Turnover C4 Product ([2]; propionyl-CoA 2.4 mM): 0.7%
- % Turnover C5 Product ([2]; propionyl-CoA 2.4 mM): 17.8%
